Experiments:
[1] = molecular target: FLAG-PfDdi1 (recombinant full length PfDdi1 with N-terminal FLAG tag) (P. falciparum); assay: native MS
[2] = molecular target: FLAG-PfDdi1^D262N (recombinant full length catalytically inactive PfDdi1 with N-terminal FLAG tag) (P. falciparum); assay: native MS

For “FLAG-PfDdi1 (recombinant full length PfDdi1 with N-terminal FLAG tag) (enzyme)”, the stoichiometry N [1] was 2.
“FLAG-PfDdi1^D262N (recombinant full length catalytically inactive PfDdi1 with N-terminal FLAG tag) (enzyme)” showed a stoichiometry N [2] of 2.

From doi:10.1101/2021.05.11.443575
